Assay results: US20220204580A1 (AstraZeneca / MedImmune, published 2022)
Numbered stars: 1 amine (or outer) side, 2 acyl side, 3 side chain; on linkers, the order of the positions; unused ones are H or OH. Bridge positions count the residues as written; N and C are the ends. Square brackets hold non-standard residues; d marks the D form. Side chains are listed from the residue outwards. Ends that are not written are not given here. * marks the point of attachment. C18 diacid = O=C(O)CCCCCCCCCCCCCCCCC(=O)*; γGlu = O=C(O)[C@H](CCC(=O)[*:2])N[*:1]; Aib = CC(C)(N)C(=O)O

T1: human calcitonin receptor (human, UniProt P30988 25-474)
T1 sequence (looked up): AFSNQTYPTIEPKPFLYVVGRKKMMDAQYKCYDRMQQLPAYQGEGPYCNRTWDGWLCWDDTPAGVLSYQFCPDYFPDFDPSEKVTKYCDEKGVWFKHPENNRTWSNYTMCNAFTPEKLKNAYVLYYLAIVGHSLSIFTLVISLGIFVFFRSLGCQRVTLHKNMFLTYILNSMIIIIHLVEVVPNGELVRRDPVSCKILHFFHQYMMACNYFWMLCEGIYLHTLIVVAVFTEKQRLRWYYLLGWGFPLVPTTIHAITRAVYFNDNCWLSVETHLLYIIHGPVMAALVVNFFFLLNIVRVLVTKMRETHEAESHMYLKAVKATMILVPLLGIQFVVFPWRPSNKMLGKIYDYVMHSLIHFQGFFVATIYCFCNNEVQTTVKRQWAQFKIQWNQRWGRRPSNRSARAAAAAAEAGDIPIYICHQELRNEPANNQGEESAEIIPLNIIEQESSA

T2: human amylin receptor (calcitonin receptor co-expressed with receptor activity modifying protein, RAMP3) (human, UniProt P30988 25-474; O60896 24-148)
T2 sequence (looked up) 1: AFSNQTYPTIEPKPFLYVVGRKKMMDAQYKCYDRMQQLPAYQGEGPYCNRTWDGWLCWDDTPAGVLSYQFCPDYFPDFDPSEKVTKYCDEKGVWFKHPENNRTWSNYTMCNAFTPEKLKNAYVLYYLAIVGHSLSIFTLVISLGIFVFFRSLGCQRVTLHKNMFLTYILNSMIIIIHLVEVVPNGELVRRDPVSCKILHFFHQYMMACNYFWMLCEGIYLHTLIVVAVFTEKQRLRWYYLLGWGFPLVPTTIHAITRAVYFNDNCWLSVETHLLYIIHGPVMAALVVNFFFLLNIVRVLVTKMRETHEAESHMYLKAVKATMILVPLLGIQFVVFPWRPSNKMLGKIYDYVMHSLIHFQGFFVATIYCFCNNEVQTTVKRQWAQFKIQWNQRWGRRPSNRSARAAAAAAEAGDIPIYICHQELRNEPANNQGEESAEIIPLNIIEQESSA
T2 sequence (looked up) 2: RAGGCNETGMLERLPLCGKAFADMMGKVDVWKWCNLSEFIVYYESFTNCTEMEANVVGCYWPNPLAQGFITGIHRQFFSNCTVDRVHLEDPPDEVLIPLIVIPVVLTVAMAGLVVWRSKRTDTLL


Key:
[1] = target: T1, human calcitonin receptor; experiment: cell-based or functional assay
[2] = target: T2, human amylin receptor (calcitonin …); experiment: cell-based or functional assay

Binder | EC50 (cAMP production) [1] [nM] | EC50 (cAMP production) [2] [nM] | Ratio (EC50 hCTR / EC50 hAMYR3) [2]
K([γGlu-γGlu-C18 diacid])CNTATCATQRLANFLVHSS[Aib]NFGPILPPTNVGSRTY-NH2 (disulfide 2-7; N-terminus assumed; SMILES CC[C@H](C)[C@H](NC(=O)[C@@H]1CCCN1C(=O)CNC(=O)[C@H](Cc1ccccc1)NC(=O)[C@H](CC(N)=O)NC(=O)C(C)(C)NC(=O)[C@H](CO)NC(=O)[C@H](CO)NC(=O)[C@H](Cc1c[nH]cn1)NC(=O)[C@@H](NC(=O)[C@H](CC(C)C)NC(=O)[C@H](Cc1ccccc1)NC(=O)[C@H](CC(N)=O)NC(=O)[C@H](C)NC(=O)[C@H](CC(C)C)NC(=O)[C@H](CCCNC(=N)N)NC(=O)[C@H](CCC(N)=O)NC(=O)[C@@H](NC(=O)[C@H](C)NC(=O)[C@@H]1CSSC[C@H](NC(=O)[C@@H](N)CCCCNC(=O)CC[C@H](NC(=O)CC[C@H](NC(=O)CCCCCCCCCCCCCCCCC(=O)O)C(=O)O)C(=O)O)C(=O)N[C@@H](CC(N)=O)C(=O)N[C@@H]([C@@H](C)O)C(=O)N[C@@H](C)C(=O)N[C@@H]([C@@H](C)O)C(=O)N1)[C@@H](C)O)C(C)C)C(=O)N[C@@H](CC(C)C)C(=O)N1CCC[C@H]1C(=O)N1CCC[C@H]1C(=O)N[C@H](C(=O)N[C@@H](CC(N)=O)C(=O)N[C@H](C(=O)NCC(=O)N[C@@H](CO)C(=O)N[C@@H](CCCNC(=N)N)C(=O)N[C@H](C(=O)N[C@@H](Cc1ccc(O)cc1)C(N)=O)[C@@H](C)O)C(C)C)[C@@H](C)O) [Peptide 72 (SEQ ID NO: 72)] | 4 | 0.227 | 18
K([γGlu-γGlu-C18 diacid])KCNTATCATQRLANFLVHSS[Aib]NFGPILPPTRVGSNTY-NH2 (disulfide 3-8; N-terminus assumed; SMILES CC[C@H](C)[C@H](NC(=O)[C@@H]1CCCN1C(=O)CNC(=O)[C@H](Cc1ccccc1)NC(=O)[C@H](CC(N)=O)NC(=O)C(C)(C)NC(=O)[C@H](CO)NC(=O)[C@H](CO)NC(=O)[C@H](Cc1c[nH]cn1)NC(=O)[C@@H](NC(=O)[C@H](CC(C)C)NC(=O)[C@H](Cc1ccccc1)NC(=O)[C@H](CC(N)=O)NC(=O)[C@H](C)NC(=O)[C@H](CC(C)C)NC(=O)[C@H](CCCNC(=N)N)NC(=O)[C@H](CCC(N)=O)NC(=O)[C@@H](NC(=O)[C@H](C)NC(=O)[C@@H]1CSSC[C@H](NC(=O)[C@H](CCCCN)NC(=O)[C@@H](N)CCCCNC(=O)CC[C@H](NC(=O)CC[C@H](NC(=O)CCCCCCCCCCCCCCCCC(=O)O)C(=O)O)C(=O)O)C(=O)N[C@@H](CC(N)=O)C(=O)N[C@@H]([C@@H](C)O)C(=O)N[C@@H](C)C(=O)N[C@@H]([C@@H](C)O)C(=O)N1)[C@@H](C)O)C(C)C)C(=O)N[C@@H](CC(C)C)C(=O)N1CCC[C@H]1C(=O)N1CCC[C@H]1C(=O)N[C@H](C(=O)N[C@@H](CCCNC(=N)N)C(=O)N[C@H](C(=O)NCC(=O)N[C@@H](CO)C(=O)N[C@@H](CC(N)=O)C(=O)N[C@H](C(=O)N[C@@H](Cc1ccc(O)cc1)C(N)=O)[C@@H](C)O)C(C)C)[C@@H](C)O) [Peptide 70 (SEQ ID NO: 70)] | 5.41 | 0.235 | 23
K([γGlu-γGlu-C18 diacid])KCNTATCATQRLANFLVHSS[Aib]NFGPILPPTNVGSRTY-NH2 (disulfide 3-8; N-terminus assumed; SMILES CC[C@H](C)[C@H](NC(=O)[C@@H]1CCCN1C(=O)CNC(=O)[C@H](Cc1ccccc1)NC(=O)[C@H](CC(N)=O)NC(=O)C(C)(C)NC(=O)[C@H](CO)NC(=O)[C@H](CO)NC(=O)[C@H](Cc1c[nH]cn1)NC(=O)[C@@H](NC(=O)[C@H](CC(C)C)NC(=O)[C@H](Cc1ccccc1)NC(=O)[C@H](CC(N)=O)NC(=O)[C@H](C)NC(=O)[C@H](CC(C)C)NC(=O)[C@H](CCCNC(=N)N)NC(=O)[C@H](CCC(N)=O)NC(=O)[C@@H](NC(=O)[C@H](C)NC(=O)[C@@H]1CSSC[C@H](NC(=O)[C@H](CCCCN)NC(=O)[C@@H](N)CCCCNC(=O)CC[C@H](NC(=O)CC[C@H](NC(=O)CCCCCCCCCCCCCCCCC(=O)O)C(=O)O)C(=O)O)C(=O)N[C@@H](CC(N)=O)C(=O)N[C@@H]([C@@H](C)O)C(=O)N[C@@H](C)C(=O)N[C@@H]([C@@H](C)O)C(=O)N1)[C@@H](C)O)C(C)C)C(=O)N[C@@H](CC(C)C)C(=O)N1CCC[C@H]1C(=O)N1CCC[C@H]1C(=O)N[C@H](C(=O)N[C@@H](CC(N)=O)C(=O)N[C@H](C(=O)NCC(=O)N[C@@H](CO)C(=O)N[C@@H](CCCNC(=N)N)C(=O)N[C@H](C(=O)N[C@@H](Cc1ccc(O)cc1)C(N)=O)[C@@H](C)O)C(C)C)[C@@H](C)O) [Peptide 74 (SEQ ID NO: 74)] | 4.57 | 0.356 | 13
K([γGlu-C18 diacid])KCNTATCATQRLANFLVHSS[Aib]NFGPILPPTNVGSRTY-NH2 (disulfide 3-8; N-terminus assumed; SMILES CC[C@H](C)[C@H](NC(=O)[C@@H]1CCCN1C(=O)CNC(=O)[C@H](Cc1ccccc1)NC(=O)[C@H](CC(N)=O)NC(=O)C(C)(C)NC(=O)[C@H](CO)NC(=O)[C@H](CO)NC(=O)[C@H](Cc1c[nH]cn1)NC(=O)[C@@H](NC(=O)[C@H](CC(C)C)NC(=O)[C@H](Cc1ccccc1)NC(=O)[C@H](CC(N)=O)NC(=O)[C@H](C)NC(=O)[C@H](CC(C)C)NC(=O)[C@H](CCCNC(=N)N)NC(=O)[C@H](CCC(N)=O)NC(=O)[C@@H](NC(=O)[C@H](C)NC(=O)[C@@H]1CSSC[C@H](NC(=O)[C@H](CCCCN)NC(=O)[C@@H](N)CCCCNC(=O)CC[C@H](NC(=O)CCCCCCCCCCCCCCCCC(=O)O)C(=O)O)C(=O)N[C@@H](CC(N)=O)C(=O)N[C@@H]([C@@H](C)O)C(=O)N[C@@H](C)C(=O)N[C@@H]([C@@H](C)O)C(=O)N1)[C@@H](C)O)C(C)C)C(=O)N[C@@H](CC(C)C)C(=O)N1CCC[C@H]1C(=O)N1CCC[C@H]1C(=O)N[C@H](C(=O)N[C@@H](CC(N)=O)C(=O)N[C@H](C(=O)NCC(=O)N[C@@H](CO)C(=O)N[C@@H](CCCNC(=N)N)C(=O)N[C@H](C(=O)N[C@@H](Cc1ccc(O)cc1)C(N)=O)[C@@H](C)O)C(C)C)[C@@H](C)O) [Peptide 73 (SEQ ID NO: 73)] | 1.82 | 0.256 | 7
K([γGlu-γGlu-C18 diacid])CNTATCATQRLANFLRHSS[Aib]NFGPILPPTNVGSNTY-NH2 (disulfide 2-7; N-terminus assumed; SMILES CC[C@H](C)[C@H](NC(=O)[C@@H]1CCCN1C(=O)CNC(=O)[C@H](Cc1ccccc1)NC(=O)[C@H](CC(N)=O)NC(=O)C(C)(C)NC(=O)[C@H](CO)NC(=O)[C@H](CO)NC(=O)[C@H](Cc1c[nH]cn1)NC(=O)[C@H](CCCNC(=N)N)NC(=O)[C@H](CC(C)C)NC(=O)[C@H](Cc1ccccc1)NC(=O)[C@H](CC(N)=O)NC(=O)[C@H](C)NC(=O)[C@H](CC(C)C)NC(=O)[C@H](CCCNC(=N)N)NC(=O)[C@H](CCC(N)=O)NC(=O)[C@@H](NC(=O)[C@H](C)NC(=O)[C@@H]1CSSC[C@H](NC(=O)[C@@H](N)CCCCNC(=O)CC[C@H](NC(=O)CC[C@H](NC(=O)CCCCCCCCCCCCCCCCC(=O)O)C(=O)O)C(=O)O)C(=O)N[C@@H](CC(N)=O)C(=O)N[C@@H]([C@@H](C)O)C(=O)N[C@@H](C)C(=O)N[C@@H]([C@@H](C)O)C(=O)N1)[C@@H](C)O)C(=O)N[C@@H](CC(C)C)C(=O)N1CCC[C@H]1C(=O)N1CCC[C@H]1C(=O)N[C@H](C(=O)N[C@@H](CC(N)=O)C(=O)N[C@H](C(=O)NCC(=O)N[C@@H](CO)C(=O)N[C@@H](CC(N)=O)C(=O)N[C@H](C(=O)N[C@@H](Cc1ccc(O)cc1)C(N)=O)[C@@H](C)O)C(C)C)[C@@H](C)O) [Peptide 75 (SEQ ID NO: 75)] | 16 | 0.161 | 99
{C18 diacid}-[γGlu]KCNTATCATQRLANFLVHSS[Aib]NFGPILPPTRVGSNTY-NH2 (disulfide 3-8; SMILES CC[C@H](C)[C@H](NC(=O)[C@@H]1CCCN1C(=O)CNC(=O)[C@H](Cc1ccccc1)NC(=O)[C@H](CC(N)=O)NC(=O)C(C)(C)NC(=O)[C@H](CO)NC(=O)[C@H](CO)NC(=O)[C@H](Cc1c[nH]cn1)NC(=O)[C@@H](NC(=O)[C@H](CC(C)C)NC(=O)[C@H](Cc1ccccc1)NC(=O)[C@H](CC(N)=O)NC(=O)[C@H](C)NC(=O)[C@H](CC(C)C)NC(=O)[C@H](CCCNC(=N)N)NC(=O)[C@H](CCC(N)=O)NC(=O)[C@@H](NC(=O)[C@H](C)NC(=O)[C@@H]1CSSC[C@H](NC(=O)[C@H](CCCCN)NC(=O)CC[C@H](NC(=O)CCCCCCCCCCCCCCCCC(=O)O)C(=O)O)C(=O)N[C@@H](CC(N)=O)C(=O)N[C@@H]([C@@H](C)O)C(=O)N[C@@H](C)C(=O)N[C@@H]([C@@H](C)O)C(=O)N1)[C@@H](C)O)C(C)C)C(=O)N[C@@H](CC(C)C)C(=O)N1CCC[C@H]1C(=O)N1CCC[C@H]1C(=O)N[C@H](C(=O)N[C@@H](CCCNC(=N)N)C(=O)N[C@H](C(=O)NCC(=O)N[C@@H](CO)C(=O)N[C@@H](CC(N)=O)C(=O)N[C@H](C(=O)N[C@@H](Cc1ccc(O)cc1)C(N)=O)[C@@H](C)O)C(C)C)[C@@H](C)O) [Peptide 71 (SEQ ID NO: 71)] | 1.39 | 0.211 | 7
